Laboratory results: paper PMC6637868

Target: 6His-CspA (Xanthomonas oryzae pv. oryzae PXO99A, UniProt A0ACG7R7F9 8-71)
Assay: EMSA
Conditions: protein: recombinant; tags: N-terminal His6 (pET-30a-c(+)); label: 3' biotin

B1: PXO_RS11830 promoter probe (dsDNA)
DNA 1: CTGGCGGACGCCAATAGCGGTTGAATGGGCAAGAGGATCT
DNA 2: AGATCCTCTTGCCCATTCAACCGCTATTGGCGTCCGCCAG
Does B1 bind?
Result: binds

B2: PXO_RS01060 promoter probe (dsDNA)
DNA 1: ATGATGTCGCCCAATCCCTGACCAGATCGATGCGCATGCA
DNA 2: TGCATGCGCATCGATCTGGTCAGGGATTGGGCGACATCAT
Does B2 bind?
Result: binds
